Data on nine molecules can be found in paper PMC12648313, “Enhancing the Efficacy, Utility, and Throughput of the Transcription Block Survival Peptide Library Screening Platform” (JACS Au, 2025).

The subject of data set [1] is CREB1 bZIP-CRE DNA (CRE mDHFR reporter). Put plainly: TBS growth assay: transcription block relief / peptide antagonism in E. coli (CREB1/CRE). Conditions: M9 agar, 8 μM TMP, 1 mM IPTG, three independent experiments. In kind it is cell-based, E. coli BL21-Gold. The text has this:
To validate the new TBS constructs, six BL21-Gold E. coli control strains were generated. Empty plasmids (lacking gene of interest) were used to control for replication and antibiotic stresses (Table ): Control strains 1 and 4 contained mDHFR gene reporter plasmids for 5xCRE and 9xCRE respectively, and two empty plasmids; control strains 2 and 5 contained reporter plasmid, target plasmid encoding the CREB1 basic-leucine zipper (bZIP) domain and one empty plasmid; control strains 3 and 6 contained reporter plasmid, target plasmid and the antagonist plasmid encoding A-CREB (peptide inhibitor of CREB1 comprising a rationally designed acidic extension appended to the N-terminus of the CREB1 LZ).
2 Introduction of CRE DNA sites into the 5′-promoter/UTR region of a mDHFR plasmid facilitates effective transcription block. […]
(§1) pressure respectively. Three independent growth experiments were conducted for each strain/condition with the percentage of the plate covered by bacterial colonies determined using ImageJ 1.54G. Images were converted to 8-bit, threshold values were set to identify coverage, and the resulting black and white image was measured for percentage coverage in a defined circle excluding the plate edge. Percentage coverage was utilised to quantify both bacterial survival and growth rate.

The next data set addresses FAM-CRE DNA. Put plainly: FP DNA binding, CREB1. Conditions: pH 7.4. Here is the method: (§2) removed before peptide concentration determination.
(§3) Peptide samples were suspended in 20
(§4) Post-melt scans at 20°C confirmed the
(§5) Sequential 2 µL injections of ATF2W (50 µM)
(§6) Data from a control experiment whereby […]
(§7) errors are given as one standard deviation.
(§8) Fluorescence polarisation: Fluorescence polarisation was measured in a CLARIOstar […]
(§9) chloride, 5 mM MgCl2, 10 mM TCEP, pH 7.4 buffer. Palindromic FAM-CRE DNA oligo was […]
(§10) purchased from Merck: 5’[6FAM]- GCGCTGACGTCAGCGC. 200 µM of the oligo was […]
(§11) prepared in water and then annealed by heating to 95°C for 10 minutes before cooling slowly to room temperature to give a 100 µM duplex stock. Samples containing 10 nM FAM-CRE and a serial dilution of ATF2 (12 nM-10 µM) were prepared and incubated at room temperature for 1 hour before transferring to the assay plate for measurement. Data were fit to a one site binding model. For antagonism experiments, the ATF2 concentration required for 80% response was selected. Samples containing 10 nM FAM-TRE, 625 nM ATF2 and a serial dilution of ATF2W (29 nM-12 µM) were prepared and incubated at room temperature for 2 hours before transferring to the assay plate for measurement. CREB1/CRE, cJun/TRE and DLX5/H-box DNA antagonism were determined by the equivalent experiments, using the FAM-CRE oligo above; FAM-TRE DNA oligoes: 5’-[6FAM]-TCTCTGACTCAGAGA, 5’- […]

A further data set relates to E. coli. Put plainly: TBS growth without TMP (cellular toxicity of expression). It is filed as cell-based, E. coli BL21-Gold. As to conditions: strain 10, 0 μM TMP, 0.8 mM IPTG. Here is the method:
(§12) 3 Introduction of H-box DNA sites into the 5′-promoter/UTR region of a mDHFR plasmid enables transcription block by both DLX5 full length and homeodomain. Equal numbers of cells from the control strains (Table ) were plated on selective M9 agar (0 or 8 μM TMP, 0.8 or 0.2 mM IPTG) and incubated (30 or 37 °C) before imaging. Bar charts show % plate coverage for three independent experiments with error bars shown as one standard deviation. Select p values from a t test are indicated (*p ≤ 0.05; **p ≤ 0.01; ns = not significant).
(§13) Enhancing the efficacy, utility and throughput of the Transcription Block Survival peptide library screening platform
(§14) Andrew Brennan1,2, T M Simon Tang1 and Jody M Mason1,2
(§15) 1Department of Life Sciences, University of Bath, Bath BA2 7AY, United Kingdom 2Address correspondence to JMM or AB (j.mason@bath.ac.uk; ab3107@bath.ac.uk) […]
as §1

The subject of data set [2] is 9xDLX (H-box) mDHFR reporter. Kind of data set: TBS growth assay: transcription block by DLX5 HD / FL. It is filed as cell-based, E. coli BL21-Gold. As to conditions: 8 μM TMP; for colony formation on target expression (transcription block): strains 9 (HD) and 10 (FL) vs 8, 9xDLX mDHFR, M9 agar, 0.8 or 0.2 mM IPTG, 30 or 37 °C, three independent experiments.
From the text: To highlight the platforms versatility for TFs with distinct DNA recognition motifs, we next constructed a 9xhomeobox (H-Box) system to identify inhibitors of homeodomain-containing TFs, including the DLX (Figure C), pre-B cell leukemia transcription factor (PBX) and orthodenticle homeobox protein (OTX) families. As with the CRE-based design, nine H-box consensus sequences were inserted into the 5′-promoter/UTR region of the mDHFR reporter gene (Figure S4).
as §12, §13, §14, §15
Plasmid constructs: Target cognate binding sequence-containing inserts were produced using PCR fill-in reactions from synthesised primers (Merck). They were then subcloned using XhoI and SphI sites into the pQE16-derivative pES300d WT mDHFR plasmid (Figure S1, S2, S3). […]
as §1

Another data set deals with FAM-H-Box DNA. Kind of data set: FP DNA binding, DLX5. As to conditions: pH 7.4. The method, then: as §2, §3, §4, §5, §6, §7, §8, §9, §10, §11
The target of data set [3] is cJun bZIP (UniProt P05412). Put plainly: competition (FP). As to conditions: antagonist peptide ATF2W; FP: chloride salt (buffer and salt concentration truncated in material), 5 mM MgCl2, 10 mM TCEP, pH 7.4; 10 nM FAM-DNA; 1 h incubation, temperature not in ….
For data set [4], the target named is cJun bZIP (UniProt P05412). Put plainly: fluorescence polarization. As to conditions: FP: chloride salt (buffer and salt concentration truncated in material), 5 mM MgCl2, 10 mM TCEP, pH 7.4; 10 nM FAM-DNA; 1 h incubation, temperature not in ….
A further data set concerns the target FAM-labeled CRE DNA. Kind of data set: FP DNA binding, ATF2. Conditions: ATF2 12 nM-10 μM, 10 nM FAM-CRE DNA; 20 mM potassium phosphate, 50 mM NaCl, 5 mM MgCl2, 10 mM TCEP, pH 7.4; 1 h, room temperature; one site model.
The target in data set [5] is T1, ATF2 bZIP (human, UniProt P15336 352-410).
T1 sequence: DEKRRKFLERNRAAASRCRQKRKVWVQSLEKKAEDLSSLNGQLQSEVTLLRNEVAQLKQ
Kind of data set: competition (FP); antagonist peptide ATF2W 29 nM-12 uM, 625 nM ATF2; FP: chloride salt (buffer and salt concentration truncated in material), 5 mM MgCl2, 10 mM TCEP, pH 7.4; 10 nM FAM-DNA; 1 h incubation, temperature not in material. As to conditions: chain copies: 2; label: 5' 6-FAM; blunt; self-complementary, 2 copies.

For data set [6], the target named is T1, ATF2 bZIP. Kind of data set: fluorescence polarization; 10 nM DNA, ATF2 12 nM-10 uM; FP: chloride salt (buffer and salt concentration truncated in material), 5 mM MgCl2, 10 mM TCEP, pH 7.4; 10 nM FAM-DNA; 1 h incubation, temperature not in material. Conditions: chain copies: 2; label: 5' 6-FAM; blunt; self-complementary, 2 copies.
In data set [7] the target is T2, CREB1 bZIP (UniProt P16220 269-327).
T2 sequence: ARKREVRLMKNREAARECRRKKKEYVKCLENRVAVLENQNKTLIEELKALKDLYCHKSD
Kind of data set: fluorescence polarization; FP: chloride salt (buffer and salt concentration truncated in material), 5 mM MgCl2, 10 mM TCEP, pH 7.4; 10 nM FAM-DNA; 1 h incubation, temperature not in material. As to conditions: chain copies: 2; label: 5' 6-FAM; blunt; self-complementary, 2 copies.

Data set [8] deals with T2, CREB1 bZIP. Kind of data set: competition (FP); antagonist peptide ATF2W; FP: chloride salt (buffer and salt concentration truncated in material), 5 mM MgCl2, 10 mM TCEP, pH 7.4; 10 nM FAM-DNA; 1 h incubation, temperature not in material. As to conditions: chain copies: 2; label: 5' 6-FAM; blunt; self-complementary, 2 copies.
Data set [9] concerns the target T1, ATF2 bZIP. Kind of data set: competition (FP); antagonist: non-selected library member control peptide; FP: chloride salt (buffer and salt concentration truncated in material), 5 mM MgCl2, 10 mM TCEP, pH 7.4; 10 nM FAM-DNA; 1 h incubation, temperature not in material. As to conditions: chain copies: 2; label: 5' 6-FAM; blunt; self-complementary, 2 copies.
The next data set addresses FAM-TRE DNA. Kind of data set: FP DNA binding, cJun. As to conditions: pH 7.4. Here is the method: as §2, §3, §4, §5, §6, §7, §8, §9, §10, §11
A further data set addresses DLX5 HD (UniProt P56178 138-198). Put plainly: fluorescence polarization; FP: chloride salt (buffer and salt concentration truncated in material), 5 mM MgCl2, 10 mM TCEP, pH 7.4; 10 nM FAM-DNA; 1 h incubation, temperature not in material. Conditions: label: 5' 6-FAM; blunt; self-complementary, 2 copies.

Sequence of DLX5 HD (P56178 138-198): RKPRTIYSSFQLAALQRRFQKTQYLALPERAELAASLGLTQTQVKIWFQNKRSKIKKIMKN

For the molecule “CREB1: CREB1 bZIP domain spans from Ala283 to Asp341 (ARKREVRLMKNREAARECRRKKKEYVKCLENRVAVLENQNKTLIEELKALKDLYCHKSD)”, the “bacterial growth on target expression (transcription block)” value in data set [1] (strains 2 and 5 (5xCRE and 9xCRE mDHFR)) is given as “markedly reduced growth”. Besides, the Kd on FAM-CRE DNA is 156 ± 26 nM.
Regarding DLX5 FL: full-length DLX5, in the data set on E. coli, the “growth in absence of TMP (cellular toxicity)” value was “reduced growth was also observed in the absence of TMP”. In addition, the “growth inhibition on target expression, comparison FL vs HD” value in data set [2] (strain 10 vs 9, optimized conditions: 0.2 mM IPTG or 30 °C) is “produced a robust transcriptional block and more effectively suppressed E. coli growth than DLX5 HD”. The “colony formation on target expression (transcription block)” value in data set [2] is “introduced a transcriptional block, resulting in reduced colony formation”.
As for “LEQQLEELAQENEELEKEAEELEQELAELENRVAVLENQNKTLIEELKALKDLYCHKSD [A-CREB, reference compound]”, in data set [1] (strains 3 and 6 (5xCRE and 9xCRE mDHFR) expressing CREB1 bZIP and A-CREB, % plate coverage), the “bacterial growth restoration (relief of transcriptional block)” value is “Growth was restored”.
With “DLX5: DLX5 HD spans from Val137 to Asn198”, on FAM-H-Box DNA, binding was characterised by a dissociation constant (Kd) of 383 ± 19 nM. In addition, the “colony formation on target expression (transcription block)” value in [2] is “less pronounced than in the corresponding CRE system”.
As for “TCTCTGACTCAGAGA (double strand) [FAM-TRE]”, in the data set with cJun bZIP [3], the IC50 worked out at 1850 nM. Further, in the data set with cJun bZIP [4], the Kd turned out to be 330 nM.
In turn, “ATF2: human ATF2 bZIP domain spans from Asp352 to Gln410” showed a Kd on FAM-labeled CRE DNA of 277 ± 19 nM.

B1: FAM-CRE (dsDNA)
DNA 1: GCGCTGACGTCAGCGC
DNA 2: GCGCTGACGTCAGCGC
For the molecule B1, the values for the IC50 in the data set with ATF2 bZIP [5], in the data set with CREB1 bZIP [8] and in the data set with ATF2 bZIP [9] were 667 ± 71 nM, 2360 ± 59 nM and 3690 ± 110 nM, respectively. The Kd with ATF2 bZIP [6] came out at 277 ± 19 nM; with CREB1 bZIP [7], 156 ± 26 nM.

B2: cJun: purified cJun bZIP (protein)
chain: RIKAERKRMRNRIAASKCRKRKLERIARLEEKVKTLKAQNSELASTANMLREQVAQLKQKVMNH
For B2, on FAM-TRE DNA, the Kd stood at 330 ± 42 nM.

B3: FAM-H-Box (dsDNA)
DNA 1: TCTCTAATTAGAGA
DNA 2: TCTCTAATTAGAGA
In the case of B3, the Kd with DLX5 HD came out at 383 ± 19 nM.
